From patent US20070027096, “Aptamers to human epidermal growth factor receptor-3” (published 2007)

Key:
[1] = molecular target: T1, HER3 extracellular domain (HER3ECD, ErbB3) (Homo sapiens, UniProt P21860 SEQ:20-643); experiment: EMSA; 8 pmol RNA with 24 pmol HER3ECD, 37 C; conditions: tags: C-terminal V5 and hexa-His (pMT/BiP/V5-His A, S2 insect cells); chain copies: oligomeric (self-associated; stated); label: internal 32P
Protocol: (§1) For screening purposes, 8 pmol of internally labeled aptamer were incubated in binding buffer with 24 pmol of HER3ECD at 37° C. for 10 minutes and analyzed on 6% non-denaturing polyacrylamide gels as described above. Aptamers displaying substantial shift were reverse transcribed and sequenced. For subsequent analysis of A30 binding, internally labeled and unlabeled A30 was denatured at 90° C. for 2 min in PBS and cooled on ice for 1 min. A30 was incubated with HER3ECD in binding buffer for 10 min at 37° C. at the indicated concentrations and in the presence 0.5 μM tRNA and was analyzed by electrophoresis on a non-denaturing 6% polyacrylamide gel at 4° C. Were indicated, HER3ECD and heregulin were premixed at room temperature three minutes before the addition of A30.

[2] = molecular target: HER2 extracellular domain (HER2-ECD) (Homo sapiens, UniProt P04626 SEQ:23-652); experiment: EMSA; 0.5 uM protein; conditions: label: internal 32P; triple hairpin loop
[3] = molecular target: T2, heregulin (Homo sapiens); experiment: EMSA; 0.5 uM protein; conditions: label: internal 32P; triple hairpin loop
T2 chain: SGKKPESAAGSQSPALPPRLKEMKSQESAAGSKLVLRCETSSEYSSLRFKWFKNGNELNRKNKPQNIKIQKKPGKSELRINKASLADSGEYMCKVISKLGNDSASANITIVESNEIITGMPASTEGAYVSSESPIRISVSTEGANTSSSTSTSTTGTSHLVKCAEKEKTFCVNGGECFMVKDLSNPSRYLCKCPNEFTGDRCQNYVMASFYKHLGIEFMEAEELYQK

[4] = molecular target: T1, HER3 extracellular domain (HER3ECD, …); experiment: EMSA; apparent Kd by displacement with unlabeled A30; no heregulin; 10 mM HEPES pH 7.4, 100 mM NaCl, 2.5 mM MgCl2, 37 C, 0.5 uM tRNA; conditions: tags: C-terminal V5 and hexa-His (pMT/BiP/V5-His A, S2 insect cells); chain copies: oligomeric (self-associated; stated); label: internal 32P; triple hairpin loop
Protocol: as §1
(§2) Several lines of evidence provide evidence that the interaction of A30 with HER3ECD involves at least two different modes of binding. […] Addition of heregulin has two consequences. […] With respect to the heregulin-induced increase and dual mode of binding, we observed a similar, although less pronounced, effect for A30 binding to MCF7 cells (FIG. 4B+C). MCF7 cells endogenously express both HER3 and HER2. […] The addition of heregulin results in an increase in the number of A30 binding sites FIG. 4B), but this increase is relatively small (25% total 17% for low affinity and 8% for high affinity sites).

[5] = molecular target: T3, HER3 on MCF7 cells (with endogenous HER2) (Homo sapiens, UniProt P21860 SEQ:20-1342); experiment: competition; high affinity site on MCF7 cells, 4 C, PBS, +/-0.2, Scatchard; conditions: label: internal 32P; triple hairpin loop
Protocol: (§3) MCF7 cells (ATCC) were grown to 70% confluency on 6 well plates and washed with ice cold PBS. Following the washes, cells were incubated at 4° C. with 1 mL ice cold PBS or PBS containing 200 nM heregulin. After four hours an equal volume of ice cold PBS containing two microliter internally ³²P labeled A30 aptamer (80,000 cpm/μL), 20 μL RNAse inhibitor (20 units/μL), and varying concentrations of unlabeled aptamer were added. After four hours incubation, the supernatant was removed, and cells were washed three times with ice cold PBS. Displaced and bound radiolabeled aptamer was measured in duplicate.
as §2

[6] = molecular target: T3, HER3 on MCF7 cells (with endogenous …); experiment: competition; low affinity site on MCF7 cells, 4 C, PBS, +/-2.2, Scatchard; conditions: label: internal 32P; triple hairpin loop
Protocol: as §3, §2

[7] = molecular target: T3, HER3 on MCF7 cells (with endogenous …); experiment: cell_activity; half-maximal inhibition of heregulin-specific MCF7 growth; maximum 50% inhibition; conditions: label: internal 32P; triple hairpin loop
Protocol: MCF7 cells were seeded in 96 well plates (2500 cells/well) in RPMI, 2% fetal bovine serum, 2 units of RNAse inhibitor/ml and varying concentrations of heregulin and aptamer. After two days, cell growth was determined using an MTT/tetrazolium based assay (Promega). Cell growth was equated with the absorbance of converted and solubilized dye at 560 nm. All samples were determined in triplicate.
Next, we evaluated the ability of A30 to interfere with receptor activation by wild type heregulin. […] In contrast, the activation of HER2 by EGF, which proceeds through hetetodimers of EGFR and HER2, is not inhibited by A30 (FIG. 7b). The low intensity of tyrosine phosphorylation of HER2 after stimulation by EGF is a reflection of the lower levels of EGFR (5000/cell) compared to HER2 (15,000) and HER3 (25,000) (see, e.g. Aguilar et al. (1999) Oncogene 18, 6050-62) and the fact that EGFR signaling proceeds only in part through heterodimers with HER2. To evaluate if the inhibition of tyrosine phosphorylation is reflected in a reduction in heregulin-specific growth stimulation, we incubated MCF7 cells in the presence of different concentrations of A30 and heregulin for two days (FIG. 8). […] Half-maximal inhibition occurs at around 1 nM A30. The addition of A30 alone has little effect on the growth of MCF7 cells.

[8] = molecular target: T1, HER3 extracellular domain (HER3ECD, …); experiment: EMSA; 8 pmol RNA with 24 pmol HER3ECD, 37 C; A18 and A30 do not displace each other; conditions: tags: C-terminal V5 and hexa-His (pMT/BiP/V5-His A, S2 insect cells); chain copies: oligomeric (self-associated; stated); label: internal 32P
Protocol: as §1

T3 sequence (P21860 20-1342 E560G/E1064G): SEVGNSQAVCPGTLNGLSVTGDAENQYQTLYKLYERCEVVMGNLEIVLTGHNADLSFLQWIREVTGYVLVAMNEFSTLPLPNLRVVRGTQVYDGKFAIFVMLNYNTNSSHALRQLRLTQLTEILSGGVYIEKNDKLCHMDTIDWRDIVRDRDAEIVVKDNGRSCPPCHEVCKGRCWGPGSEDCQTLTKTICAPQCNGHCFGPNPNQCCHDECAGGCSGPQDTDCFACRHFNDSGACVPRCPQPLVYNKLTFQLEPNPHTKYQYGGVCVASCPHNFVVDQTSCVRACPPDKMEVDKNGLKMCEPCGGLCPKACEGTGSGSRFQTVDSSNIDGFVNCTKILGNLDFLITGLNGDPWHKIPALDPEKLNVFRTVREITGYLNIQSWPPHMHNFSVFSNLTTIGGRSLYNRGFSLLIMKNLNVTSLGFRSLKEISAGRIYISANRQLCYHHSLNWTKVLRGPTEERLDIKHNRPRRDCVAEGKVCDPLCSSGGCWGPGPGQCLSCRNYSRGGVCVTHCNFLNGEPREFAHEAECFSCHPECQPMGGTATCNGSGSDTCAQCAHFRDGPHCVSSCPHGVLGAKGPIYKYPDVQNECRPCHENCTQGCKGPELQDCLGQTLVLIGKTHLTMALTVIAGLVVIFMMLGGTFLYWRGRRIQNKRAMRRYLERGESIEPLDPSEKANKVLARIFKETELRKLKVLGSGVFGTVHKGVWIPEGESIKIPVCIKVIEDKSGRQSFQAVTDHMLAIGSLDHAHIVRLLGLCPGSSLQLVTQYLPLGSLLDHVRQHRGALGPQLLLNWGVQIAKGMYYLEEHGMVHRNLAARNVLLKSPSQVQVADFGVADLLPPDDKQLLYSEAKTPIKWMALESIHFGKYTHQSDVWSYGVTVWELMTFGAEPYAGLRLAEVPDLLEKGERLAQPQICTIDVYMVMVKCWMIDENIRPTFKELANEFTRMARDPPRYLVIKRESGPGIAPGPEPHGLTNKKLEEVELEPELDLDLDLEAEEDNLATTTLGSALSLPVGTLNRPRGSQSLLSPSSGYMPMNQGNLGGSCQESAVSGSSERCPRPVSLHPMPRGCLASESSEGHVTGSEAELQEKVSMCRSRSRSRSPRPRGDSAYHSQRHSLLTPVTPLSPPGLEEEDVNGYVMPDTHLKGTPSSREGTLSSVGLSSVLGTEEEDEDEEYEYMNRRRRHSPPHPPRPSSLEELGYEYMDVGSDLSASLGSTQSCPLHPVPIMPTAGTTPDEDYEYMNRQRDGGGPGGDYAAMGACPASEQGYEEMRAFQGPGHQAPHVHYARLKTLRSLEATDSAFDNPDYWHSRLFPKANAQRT
T1 sequence (P21860 20-643 E560G): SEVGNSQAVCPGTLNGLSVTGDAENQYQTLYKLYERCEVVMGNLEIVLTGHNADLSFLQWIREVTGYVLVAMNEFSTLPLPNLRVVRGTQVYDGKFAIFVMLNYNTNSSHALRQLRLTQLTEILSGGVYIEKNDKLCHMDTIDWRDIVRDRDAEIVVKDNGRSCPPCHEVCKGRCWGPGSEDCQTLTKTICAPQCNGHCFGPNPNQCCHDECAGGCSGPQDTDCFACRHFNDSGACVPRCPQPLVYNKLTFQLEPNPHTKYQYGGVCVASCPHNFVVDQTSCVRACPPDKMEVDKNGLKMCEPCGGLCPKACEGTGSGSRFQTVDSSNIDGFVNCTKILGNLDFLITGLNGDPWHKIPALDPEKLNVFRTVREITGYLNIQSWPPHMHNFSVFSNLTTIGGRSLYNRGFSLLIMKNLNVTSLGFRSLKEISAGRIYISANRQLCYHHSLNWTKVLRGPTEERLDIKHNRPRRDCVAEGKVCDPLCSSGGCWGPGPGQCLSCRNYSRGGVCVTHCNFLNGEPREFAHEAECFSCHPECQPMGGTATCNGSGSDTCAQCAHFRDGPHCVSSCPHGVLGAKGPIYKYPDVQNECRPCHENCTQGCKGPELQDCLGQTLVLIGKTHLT

B1: A19 (ssRNA)
RNA: GGGAAUUCCGCGUGUGCAGAUCAGGACAGAGCGCACAGGUGCCAUCCUGGUCUAACGCCCUCGAUGGUCCGUUCGGGAUCCUC
- binding result [1]: binds

B2: A37 (ssRNA)
RNA: GGGAAUUCCGCGUGUGCUUGAGAGGUCGUGCCAACUCUCAAGGUUGUCUUUGCUCUCCGCUCUGUGGUCCGUUCGGGAUCCUC
- binding result [1]: binds

B3: A23 (ssRNA)
RNA: GGGAAUUCCGCGUGUGCGAGGGGCGAGGACGCCGAGUAUAGCCCCUAGAGGUGGAUGUUUCACGGUGUCCGUUCGGGAUCCUC
- binding result [1]: binds

B4: A30 (ssRNA)
RNA: GGGAAUUCCGCGUGUGCCAGCGAAAGUUGCGUAUGGGUCACAUCGCAGGCACAUGUCAUCUGGGCGGUCCGUUCGGGAUCCUC
- binding result [2]: no binding
- binding result [3]: no binding
- Kd [4]: 45 nM
- Kd [5]: 3.3 nM
- Kd [6]: 21 nM
- IC50 [7]: ~1 nM

B5: A6 (ssRNA)
RNA: GGGAAUUCCGCGUGUGCAGAACAAUCGCAUAGGCCGCAAGGUUAGUUUCGUUGUCCGCCCGGUGCAGUCCGUUCGGGAUCCUC
- binding result [1]: binds

B6: A18 (ssRNA)
RNA: GGGAAUUCCGCGUGUGCACGAGUAUAGCCCACAUGGCACGACAGGGACGUUUCAUGUGCACAGUUGGUCCGUUCGGGAUCCUC
- binding result [8]: binds
